We go through two proteins from PMC5983622, “New Insight into the Octamer of TYMS Stabilized by Intermolecular Cys43-Disulfide” (International Journal of Molecular Sciences, 2018).

The data set deals with the molecule itself. Kind of data set: SDS-PAGE without reductant (Coomassie brilliant blue, Western blot); purified protein, serially diluted, incubated with loading buffer without beta-mercaptoethanol at 37 °C or 100 °C for 10 min; also with beta-mercaptoethanol at 100 °C (~280 kDa band disappeared, ~70 kDa band weakened); also after incubation with 2 mM dUMP and 2 mM mTHF (bands unchanged); anti-His-tag blot.

B1: TYMS (Cys210Gly) (enzyme, human, UniProt P04818-1 1-313, looked up)
chain: MPVAGSELPRRPLPPAAQERDAEPRPPHGELQYLGQIQHILRCGVRKDDRTGTGTLSVFGMQARYSLRDEFPLLTTKRVFWKGVLEELLWFIKGSTNAKELSSKGVKIWDANGSRDFLDSLGFSTREEGDLGPVYGFQWRHFGAEYRDMESDYSGQGVDQLQRVIDTIKTNPDDRRIIMCAWNPRDLPLMALPPCHALCQFYVVNSELSGQLYQRSGDMGLGVPFNIASYALLTYMIAHITGLKPGDFIHTLGDAHIYLNHIEPLKIQLQREPRPFPKLRILRKVEKIDDFKAEDFQIEGYNPHPTIKMEMAV
notes: thymidylate synthase (TYMS), human, NM_001071.2, with Cys210Gly made by fusion PCR, in pET-28a(+); Same construct as m1 with the point mutation; source: expressed from pET-28a, purified (Ni-NTA twice); not shown: His6, N-terminal, kept
B1: the binding result is recorded as “binds”.

B2: TYMS (Cys180Gly) (enzyme, human, UniProt P04818-1 1-313, looked up)
chain: MPVAGSELPRRPLPPAAQERDAEPRPPHGELQYLGQIQHILRCGVRKDDRTGTGTLSVFGMQARYSLRDEFPLLTTKRVFWKGVLEELLWFIKGSTNAKELSSKGVKIWDANGSRDFLDSLGFSTREEGDLGPVYGFQWRHFGAEYRDMESDYSGQGVDQLQRVIDTIKTNPDDRRIIMGAWNPRDLPLMALPPCHALCQFYVVNSELSCQLYQRSGDMGLGVPFNIASYALLTYMIAHITGLKPGDFIHTLGDAHIYLNHIEPLKIQLQREPRPFPKLRILRKVEKIDDFKAEDFQIEGYNPHPTIKMEMAV
notes: thymidylate synthase (TYMS), human, NM_001071.2, with Cys180Gly made by fusion PCR, in pET-28a(+); Same construct as m1 with the point mutation; source: expressed from pET-28a, purified (Ni-NTA twice); not shown: His6, N-terminal, kept
Regarding B2, the binding result was “binds”.
